± gives the uncertainty stated by the source.
B1: Chromodomain-helicase-DNA-binding protein 7, residues 2564 to 2605; numbered along this chain, Q9P2D1 (parent)
chain: DPDTRIPVINLEDGTRLVGEDAPKNKDLVEWLKLHPTYTVDM

Variants of: B1
Assay: abundance fitness (aPCA) (normalised: wild type 0, dead -1); higher = more abundant; growth selection in yeast, the domain comes from the species named
Details: Homo sapiens

Abundance fitness: each site, then its substitutions
W31: S -0.38 ± 0.084, I -0.463 ± 0.086, M -0.196 ± 0.11, E -0.099 ± 0.14, F 0.223 ± 0.094, T -0.398 ± 0.16, P -0.141 ± 0.082, D -0.128 ± 0.065, R -0.363 ± 0.072
N10: D -0.154 ± 0.07, E -0.786 ± 0.41, F -0.85 ± 0.065, C -0.054 ± 0.059, I -1.4 ± 0.24, Y -0.989 ± 0.18, A -0.598 ± 0.081, R -0.409 ± 0.062, M -0.598 ± 0.074, W -0.549 ± 0.22, Q -0.738 ± 0.24
K24: G -0.552 ± 0.053, T -0.047 ± 0.062, L -0.099 ± 0.071, I -0.165 ± 0.1, D -0.489 ± 0.072, H -0.107 ± 0.097, Q -0.243 ± 0.071, F -0.444 ± 0.095, R -0.188 ± 0.073, V -0.475 ± 0.058
T39: I -0.158 ± 0.064, S -0.038 ± 0.072, H -0.186 ± 0.056, M -0.382 ± 0.11, G -0.295 ± 0.06, P -0.771 ± 0.11, Y -0.347 ± 0.078, W -0.835 ± 0.12, A -0.279 ± 0.1, L -0.42 ± 0.056
P36: Q -0.461 ± 0.13, H -0.492 ± 0.13, N -0.36 ± 0.066, G -0.484 ± 0.057, I -0.65 ± 0.078, D -0.685 ± 0.17, W -0.731 ± 0.1, A -0.561 ± 0.06
V29: W -0.416 ± 0.09, K 0.229 ± 0.089, T 0.169 ± 0.14, I -0.15 ± 0.064, F -0.168 ± 0.069, E 0.052 ± 0.1, R 0.121 ± 0.056, G -0.081 ± 0.064, C -0.087 ± 0.081
D13: A -0.183 ± 0.18, L -0.627 ± 0.27
D41: G -0.335 ± 0.051, V -0.793 ± 0.055, K -1.14 ± 0.35, L -0.594 ± 0.053, E -0.179 ± 0.079, T -0.586 ± 0.063, Q -0.422 ± 0.48, N -0.343 ± 0.058, H -0.364 ± 0.092
P2: A -0.031 ± 0.059, R 0.161 ± 0.071, S 0.017 ± 0.062, L -0.179 ± 0.06, T 0.179 ± 0.072, G -0.074 ± 0.066, C 0.148 ± 0.07, F -0.513 ± 0.24, W -0.02 ± 0.06
L17: P -1.01 ± 0.27, S -0.421 ± 0.06, C -0.272 ± 0.051, N -0.351 ± 0.17, Y -0.217 ± 0.063, F -0.191 ± 0.13, Q -0.124 ± 0.086
T15: R 0.064 ± 0.1, F -0.218 ± 0.087, N 0.117 ± 0.07, K 0.051 ± 0.21, L -0.055 ± 0.083, V 0.023 ± 0.068, D 0.018 ± 0.096, M -0.264 ± 0.15
N25: C -0.274 ± 0.061, A -0.206 ± 0.053, F -0.249 ± 0.097, D -0.122 ± 0.067, T -0.131 ± 0.076, G -0.157 ± 0.046
L28: A -0.292 ± 0.067, I -0.129 ± 0.068, H -0.134 ± 0.11, V -0.185 ± 0.048, S -0.39 ± 0.062, E -0.41 ± 0.072, W -0.827 ± 0.079, T -0.355 ± 0.083
K33: L -0.17 ± 0.064, E -0.04 ± 0.074, D -0.01 ± 0.13, G -0.215 ± 0.071, I -0.449 ± 0.058, C -0.4 ± 0.069
P23: V -0.658 ± 0.057, L -0.725 ± 0.075, F -0.784 ± 0.12, K -0.515 ± 0.14, A -1.35 ± 0.21, C -0.497 ± 0.15, W -1.09 ± 0.089, Y -1.1 ± 0.16, H -0.679 ± 0.081, M -0.654 ± 0.25, S -0.79 ± 0.06, N -0.915 ± 0.15
V8: Y -0.894 ± 0.12, R -0.624 ± 0.15, K -0.387 ± 0.17, N -0.578 ± 0.13, L -0.481 ± 0.1, E -0.516 ± 0.11, C -0.577 ± 0.27, A -0.535 ± 0.18, H -0.577 ± 0.11, S -0.644 ± 0.2, Q -0.384 ± 0.21, G -0.66 ± 0.079
Y38: T -0.331 ± 0.079, H -0.216 ± 0.061, G -0.327 ± 0.05, V -0.652 ± 0.082, R -0.449 ± 0.064, W 0.085 ± 0.12, A -0.447 ± 0.082, N -0.459 ± 0.073, D -0.278 ± 0.078, K -0.321 ± 0.11
G14: T -0.275 ± 0.14, N 0.152 ± 0.1, S -0.141 ± 0.071, Q 0.007 ± 0.11, C -0.226 ± 0.22, F -0.277 ± 0.16, E -0.012 ± 0.09, A -0.115 ± 0.08, M 0.114 ± 0.071
T37: P -0.281 ± 0.1, M -0.082 ± 0.068, H -0.014 ± 0.077, S -0.058 ± 0.065, Q -0.273 ± 0.14, F -0.727 ± 0.077, D -0.09 ± 0.06, W -0.231 ± 0.11, I -0.221 ± 0.1, E -0.202 ± 0.089
L32: S -0.255 ± 0.064, E -0.324 ± 0.074, R -0.332 ± 0.078, W -0.574 ± 0.075, A -0.537 ± 0.095, G -0.214 ± 0.05, C -0.343 ± 0.079, V -0.586 ± 0.085, F -0.375 ± 0.14
D21: E -0.207 ± 0.11, T -0.246 ± 0.12, Q -0.018 ± 0.17, K -0.134 ± 0.068, P -0.378 ± 0.15, F -0.17 ± 0.073
D1: Y -0.298 ± 0.12, A -0.69 ± 0.093, S -0.237 ± 0.081, F 0.073 ± 0.29, C -0.283 ± 0.1, R -1 ± 0.11
L11: M 0.355 ± 0.16, Y 0.064 ± 0.099, C -0.195 ± 0.11, I 0.214 ± 0.085, N 0.242 ± 0.071, K 0.005 ± 0.11, F 0.015 ± 0.13, R -0.104 ± 0.084, D 0.067 ± 0.095
T4: P -0.286 ± 0.12
V40: E -0.238 ± 0.067, L -0.381 ± 0.048, Q -0.108 ± 0.097, I -0.135 ± 0.071, P -0.166 ± 0.08, S -0.144 ± 0.051, K -0.11 ± 0.054, T -0.08 ± 0.065, D -0.295 ± 0.07
A22: V -0.79 ± 0.077, W -1.04 ± 0.1, P -0.622 ± 0.11, H -0.306 ± 0.26, N -0.519 ± 0.062, R -0.477 ± 0.052, D -0.565 ± 0.081, L -0.539 ± 0.071
L34: G -0.047 ± 0.045, D -0.042 ± 0.1, H -0.037 ± 0.066, T 0.03 ± 0.093, V -0.039 ± 0.076, M 0.011 ± 0.077, P -0.328 ± 0.095, I -0.417 ± 0.099, K -0.029 ± 0.39
R16: C 0.154 ± 0.069, A -0.039 ± 0.067, K 0.06 ± 0.17, W -0.173 ± 0.069, S 0.132 ± 0.047, Q -0.23 ± 0.43
R5: V -0.372 ± 0.13, K 0.124 ± 0.095, G -0.374 ± 0.082, D -0.709 ± 0.16, M -0.242 ± 0.1, T -0.244 ± 0.1, C -0.27 ± 0.23, I -0.39 ± 0.14, S -0.303 ± 0.081
I6: Y -0.699 ± 0.21, S -0.189 ± 0.44, E -0.276 ± 0.11, L -0.697 ± 0.22, F -0.283 ± 0.15
V18: L -0.131 ± 0.071, G -0.04 ± 0.059, H -0.047 ± 0.069, C 0.074 ± 0.076, I 0.155 ± 0.079, Y -0.065 ± 0.078, D 0.147 ± 0.072, F -0.165 ± 0.079
K26: G -0.208 ± 0.053, E 0.154 ± 0.16, N -0.276 ± 0.069, F -0.486 ± 0.11, I -0.255 ± 0.068, Q -0.039 ± 0.16, H 0.203 ± 0.48, P -0.56 ± 0.08, R -0.081 ± 0.047, T -0.361 ± 0.078
I9: R 0.064 ± 0.12, D -0.345 ± 0.12, G -0.159 ± 0.063, Q -0.032 ± 0.12, A -0.111 ± 0.1, S -0.098 ± 0.091, F -0.075 ± 0.1, E -0.088 ± 0.21
G19: R -0.59 ± 0.1, K -0.262 ± 0.15, W -0.638 ± 0.082, N -0.264 ± 0.16, S -0.468 ± 0.062, E -0.093 ± 0.11, Q -0.437 ± 0.12, T -0.741 ± 0.08
E30: K -0.333 ± 0.31, F -0.591 ± 0.12, V -0.391 ± 0.068, D 0.008 ± 0.063, W -0.529 ± 0.11, R -0.277 ± 0.072, I -0.608 ± 0.12, C -0.253 ± 0.072, T -0.022 ± 0.078, P -0.345 ± 0.33, H -0.262 ± 0.095
D27: F -0.405 ± 0.077, A -0.4 ± 0.069, M -0.727 ± 0.082, L -0.678 ± 0.076, W -0.563 ± 0.073, R -0.649 ± 0.073, G -0.38 ± 0.052, E -0.23 ± 0.1
M42: R -0.092 ± 0.3, Q 0.108 ± 0.12, K -0.528 ± 0.36, Y -0.027 ± 0.069, H -0.04 ± 0.27, V -0.065 ± 0.061, T 0.142 ± 0.083, N 0.025 ± 0.059, W -0.438 ± 0.26, F -0.244 ± 0.087, P -0.569 ± 0.3
P7: K 0.082 ± 0.13, C -0.347 ± 0.2, A 0.067 ± 0.13, R 0.064 ± 0.14, F -1.07 ± 0.27, Q -0.691 ± 0.44, D 0.133 ± 0.13
H35: T -0.616 ± 0.1, Y -0.593 ± 0.072, F -0.744 ± 0.074, D -0.547 ± 0.1, W -0.764 ± 0.092, K -0.546 ± 0.14, C -0.866 ± 0.088, Q -0.56 ± 0.099, V -0.751 ± 0.062
D3: F -0.259 ± 0.11, W -0.53 ± 0.11, C -0.749 ± 0.22, H 0.089 ± 0.087, E 0.106 ± 0.057, M -0.063 ± 0.059
E20: N -0.167 ± 0.064, D -0.059 ± 0.059, L -0.369 ± 0.088, R -0.189 ± 0.055, Y -0.395 ± 0.064, S -0.159 ± 0.063

Source: the Human Domainome abundance scans (Beltran et al. 2025)
